According to patent publication CN111544600A (UNIV CHINA PHARMA, dated 2020):

Target: T1, 人DLL4抗原 (human, UniProt Q9NR61 27-524, limits assumed)
T1 construct: Coated at 1 μg/mL; also called Delta like 4
Assay: ELISA, DLL4 antigen coated on plate, HRP secondary antibody, OD450-OD630

T1 sequence (Q9NR61 27-524 limits assumed): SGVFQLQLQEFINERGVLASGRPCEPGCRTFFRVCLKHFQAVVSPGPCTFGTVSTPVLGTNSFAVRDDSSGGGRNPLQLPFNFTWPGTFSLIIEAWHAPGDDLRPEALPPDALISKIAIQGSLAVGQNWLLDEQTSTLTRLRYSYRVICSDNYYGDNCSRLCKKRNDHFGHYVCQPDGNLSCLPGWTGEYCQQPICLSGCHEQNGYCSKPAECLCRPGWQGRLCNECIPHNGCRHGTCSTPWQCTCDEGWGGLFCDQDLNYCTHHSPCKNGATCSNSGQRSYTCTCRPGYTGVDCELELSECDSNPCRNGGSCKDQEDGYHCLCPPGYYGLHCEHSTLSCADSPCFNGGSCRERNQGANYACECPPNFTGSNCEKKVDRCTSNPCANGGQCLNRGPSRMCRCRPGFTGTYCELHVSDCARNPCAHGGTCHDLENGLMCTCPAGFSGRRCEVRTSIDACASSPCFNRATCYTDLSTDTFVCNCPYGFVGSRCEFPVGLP

B1: 抗人DLL4人源化抗体H3L2 (antibody, V domains shown)
VH: QVQLVQSGAEVKKPGSSVKVSCKASGYTFSGYWMQWIKQAPGQGLEWIGAIYPGDGDTRYTQKFKGRATLTADKSTSTAYMELSSLRSEDTAVYYCAGGNFFFDYWGQGTLVTVSS
VL: EIVITQSPDFQSVTPKEKVTITCSVSSSISSSYLHWYQQKPDQSPKPWIYGTSNLASGVPSRFSGSGSGTDYTLTINSLEAEDAATYYCQQWSSSPLTFGQGTKLEIKV
For B1, the EC50 was 49.2 nM.
